Target: S Stabilizing Construct #21, CoV2_S2_1_pross mutant Spike (S) protein (SARS-CoV-2) (UniProt P0DTC2)

CR3022 antibody (RBD Specific Antibody) gave a fold affinity decrease of 17 fold.
